One molecule from US12187785B2, “Recombinant protein and fragments thereof, method for producing said recombinant protein, synthetic gene and use of sculptin or recombinant protein for preparing a medicament or pharmaceutical composition for the prophylaxis and/or treatment of thromboembolic diseases or as a direct and specific …” (priority 2017, dated 2025) can be followed below.

Series [1] has as its target T1, factor Xa (Homo sapiens, UniProt P00742).
T1 construct: Serine protease (100 pM; thrombin, plasmin, trypsin or factor Xa) was incubated with recombinant protein; For factor Xa activity, buffer contained phosphatidylserine and phosphatidylcholine 50 μM
The series is described as follows: Serine protease inhibition test, factor Xa (chromogenic substrate). Type of series: biochemical. To be noted: recombinant protein 1, 100, 200 nM; protease 100 pM; 6 h at 37° C. The method, then:
(A) Inhibition of serine proteases through recombinant protein. Serine protease (100 pM; thrombin, plasmin, trypsin or factor Xa) was incubated with recombinant protein (1, 100 and 200 nM) in phosphate buffer 50 mM containing NaCl 150 mM and 0.1% of PEG 6000, pH 7.4 for 6 h at 37° C. Following addition of chromogenic substrate corresponding to reaction mixture, hydrolysis thereof was monitored at 405 nm. For factor Xa activity, buffer contained phosphatidylserine and phosphatidylcholine 50 μM. […] (B) Typical curves for hydrolysis of chromogenic substrate S-2238 (15 μM) by thrombin 0.1 nM in absence (trace a) or presence of recombinant protein (trace b, 15 pM; trace c, 30 pM; trace d, 60 pM and trace e, 100 pM) in phosphate buffer 50 mM containing NaCl 150 mM and 0.1% of PEG 6000, pH 7.4 at 37° C. (C) Residual activity of thrombin in presence of increasing concentration of recombinant protein. (D) Dose-response curves for thrombin inhibition by recombinant protein. Percentage of thrombin inhibition was plotted versus the concentration record of recombinant protein. Experimental condition of (C) and (D) is the same as in (B).
The first performed experiment was the test of serine proteases inhibition through recombinant protein. […] Hydrolysis of a chromogenic substrate through serine proteases in the presence and absence of recombinant protein was monitored in a spectrophotometer way. […]

Series [2] deals with isolated human plasma. The series is described as follows: Activated partial thromboplastin time (aPTT) in isolated human plasma. It counts as biochemical. To be noted: plasma of healthy human volunteers, incubation 3 min. at 37° C. How it is done: (§1) Plasma was obtained from blood of healthy human volunteer and incubated with different concentrations of recombinant protein. APTT, PT and TT were determined like experimental procedure. (A) Activated partial thromboplastin time (B) prothrombin time and (C) thrombin time. Ctrl is related to plasma and Sal is related to plasma plus saline.
(§2) Finally, PT, aPTT and TT were assessed in isolated plasma of healthy human volunteers following incubation with recombinant protein for 3 min. at 37° C. […] Maximum test reading for aPTT was achieved following 12 nM, while for PT that was achieved following 6 nM of recombinant protein (FIGS. 11A and 11B).

The next series concerns the target thrombin (Homo sapiens, UniProt P00734). The series is described as follows: Incubation without serine protease in phosphate buffer, then thrombin inhibition test. The settings on record: pH 7.4. It counts as in vitro ADME. More on the design: Brown and cyan colors represent heavy and light chain of thrombin respectively. The method, then: Recombinant protein (10 μM) was incubated with or without serine protease 1 μM (thrombin, plasmin, trypsin or factor Xa) in phosphate buffer 50 mM containing NaCl 150 mM and 0.1% of PEG 6000, pH 7.4 for 4, 6, 7 or 18 h at 37° C. Reaction mixtures (20 μl) were split by SDS-PAGE. (A) hydrolysis SDS-PAGE (15%) of recombinant protein by serine proteases following 6 h of incubation. (B) Percentage of thrombin inhibition by recombinant protein following 6 h of incubation with serine protease (see experimental procedures). (C) hydrolysis SDS-PAGE (15%) of recombinant protein by serine proteases following 18 h of incubation. (D) Percentage of thrombin inhibition by recombinant protein following 18 h of incubation with serine protease (see experimental procedures). Numbering of (B) and (D) corresponds to numbering of (A) and (C), respectively, and recombinant protein control is represented by CTRL. […]
Afterwards, it was determined whether serine proteases, like thrombin, plasmin, factor Xa and trypsin, hydrolyze recombinant protein. […] Upon addition of chromogenic substrate S-2238, the hydrolysis thereof by thrombin was monitored in spectrophotometer way. […]

The test system of series [3] is isolated human plasma. The series can be described thus: Thrombin time (TT) in isolated human plasma. It counts as biochemical. The settings on record: plasma of healthy human volunteers, incubation 3 min. at 37° C. How it is done: as §1, §2
In series [4] the target is T1, factor Xa. The series is described as follows: Degradation of recombinant protein by factor Xa (SDS-PAGE and residual thrombin inhibition). It counts as in vitro ADME. To be noted: for thrombin inhibition after incubation: diluted to 100 pM. How it is done: Recombinant protein (10 μM) was incubated with or without serine protease 1 μM (thrombin, plasmin, trypsin or factor Xa) in phosphate buffer 50 mM containing NaCl 150 mM and 0.1% of PEG 6000, pH 7.4 for 4, 6, 7 or 18 h at 37° C. Reaction mixtures (20 μl) were split by SDS-PAGE. (A) hydrolysis SDS-PAGE (15%) of recombinant protein by serine proteases following 6 h of incubation. (B) Percentage of thrombin inhibition by recombinant protein following 6 h of incubation with serine protease (see experimental procedures). (C) hydrolysis SDS-PAGE (15%) of recombinant protein by serine proteases following 18 h of incubation. (D) Percentage of thrombin inhibition by recombinant protein following 18 h of incubation with serine protease (see experimental procedures). Numbering of (B) and (D) corresponds to numbering of (A) and (C), respectively, and recombinant protein control is represented by CTRL. Recombinant protein (strip 1); thrombin (strip 2) and thrombin with recombinant protein (strip 3); plasmin (strip 4) and plasmin with recombinant protein (strip 5); trypsin (strip 6) and trypsin with recombinant protein (strip 7); factor Xa (strip 8) and factor Xa with recombinant protein (strip 9) and protein marker (strip 10; in A). (E) Identification of cleavage sites of thrombin in recombinant protein following 7 h of incubation. (F) Identification of cleavage sites of factor Xa in recombinant protein following 4 h of incubation. Cleavage sites of thrombin and factor Xa in recombinant protein sequence are shown in FIGS. S1 and S2, respectively. Experimental procedure for (C), (D), (E) and (F) was the same as for (A) and (B), except the incubation time and the type of serine protease used. FIG. 5 discloses “GKPQG” as SEQ ID NO: 18, “MPKGG” as SEQ ID NO: 19, and “SDAVH” as SEQ ID NO: 20.
Afterwards, it was determined whether serine proteases, like thrombin, plasmin, factor Xa and trypsin, hydrolyze recombinant protein. For this purpose, recombinant protein (10 μM) was incubated with or without serine protease 1 μM (thrombin, plasmin, trypsin or factor Xa) in phosphate buffer 50 mM containing NaCl 150 mM and 0.1% of PEG, pH 7.4 for 6 h or 18 h at 37° C. SDS-PAGE of reaction mixture following 6 h of incubation presented that, compared to control strip of recombinant protein, strip intensity of 20-kDa (corresponding to non-digested recombinant protein) decreased and strips of lower molecular weight appeared in recombinant protein incubated by thrombin (FIG. 5A). […] Upon addition of chromogenic substrate S-2238, the hydrolysis thereof by thrombin was monitored in spectrophotometer way. […]

Series [5] is described as follows: Half-life in plasma ex vivo and in phosphate buffer containing thrombin. Type of series: in vitro ADME. The settings on record: plasma ex vivo and phosphate buffer 50 mM with 1 μM thrombin, recombinant protein 10 μM, pH 7.4, 37° C.

T1 sequence (P00742 235-488 limits assumed): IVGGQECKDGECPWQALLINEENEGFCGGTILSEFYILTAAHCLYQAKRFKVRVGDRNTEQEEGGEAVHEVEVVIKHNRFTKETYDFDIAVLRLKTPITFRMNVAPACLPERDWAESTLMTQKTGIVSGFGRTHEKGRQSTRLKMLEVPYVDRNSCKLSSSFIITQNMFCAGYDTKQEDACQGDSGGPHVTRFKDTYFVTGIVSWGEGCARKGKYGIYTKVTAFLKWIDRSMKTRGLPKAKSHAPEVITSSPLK
T1 sequence (P00742 41-179 limits assumed): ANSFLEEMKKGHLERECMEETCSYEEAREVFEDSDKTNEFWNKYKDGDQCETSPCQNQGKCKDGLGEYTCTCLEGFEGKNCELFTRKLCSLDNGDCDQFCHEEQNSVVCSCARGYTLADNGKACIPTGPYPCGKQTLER

B1: GKPQGHPHDALEARSDAVHTAVPKMPKGGHGGFEPIPIDYDERALEARSDAVHTAVPKMPKGGLGGFEPIPIDYDERALEARSDAVHTAVPKMPKGGHGGFEPIPIDYDERALEARSDAVHTAVPKMPKGGHGGFEPIPIDYDERALHALEHHHHHH (protein)
chain: GKPQGHPHDALEARSDAVHTAVPKMPKGGHGGFEPIPIDYDERALEARSDAVHTAVPKMPKGGLGGFEPIPIDYDERALEARSDAVHTAVPKMPKGGHGGFEPIPIDYDERALEARSDAVHTAVPKMPKGGHGGFEPIPIDYDERALHALEHHHHHH
modifications: Sculptin recombinat protein
notes: recombinant His-tagged protein modified from tick sculptin, expressed in E. coli
As for B1, the “inhibition of factor Xa” value in the series with factor Xa [1] is “did not inhibit”. Also, the aPTT result in the series on isolated human plasma [2] is reported as “prolonged by recombinant protein in concentration-dependent way”. In the series on isolated human plasma [2], the “concentration at which maximum test reading for aPTT was achieved” value came out at 12 nM. Moreover, the “thrombin inhibition after incubation without serine protease” value was “inhibited thrombin in similar way to control” with thrombin (6 h at 37° C., control is 100 pM of fresh recombinant protein) and “inhibited thrombin in similar way to control” with thrombin (18 h at 37° C., control of fresh recombinant protein). The TT result in the series with isolated human plasma [3] is listed as “prolonged by recombinant protein in peak-molar range”. Further, the “SDS-PAGE, hydrolysis of recombinant protein” value with factor Xa [4] (10 μM protein with 1 μM factor Xa, 6 h at 37° C.) was “converted the recombinant protein in fragments”. Moreover, the “SDS-PAGE strip of 20-kDa (recombinant protein monomer)” value in the series with factor Xa [4] (10 μM protein with 1 μM factor Xa, 18 h at 37° C.) is reported as “completely disappeared”. Besides, the “thrombin inhibition after incubation” value with factor Xa [4] (after 6 h digestion with factor Xa, thrombin 100 pM) is “retained its thrombin inhibition activity”; with factor Xa [4] (after 18 h incubation with factor Xa) it was “even inhibited the thrombin activity”. In addition, the Half-life in series [5] came to 8 h.
